The text below walks through data of publication PMC7125119, “An oncopeptide regulates m6A recognition by the m6A reader IGF2BP1 and tumorigenesis”.

The target of the series is IGF2BP1-Flag (recombinant);RBRP-Flag WT (Homo sapiens?;Homo sapiens, UniProt Q9NZI8;C0HM01 1-577;1-71, |). In words: EMSA; RBRP WT increases IGF2BP1 binding; Pull-down: 1 nmol biotin-RNA on streptavidin-agarose, nuclear extract, 30 C 30 min, immunoblot. EMSA: LightShift kit, 20 pmol RNA, 6 ug IGF2BP1-Flag, 2 ug RBRP, room temperature 30 min, then 0.2% glutaraldehyde (1 ul) on ice 15 min, 6% TBE gel; salt and binding pH not stated. To be noted: protein: recombinant;recombinant; label: biotin 5'; single strand. A general note: In EMSA bound probe runs differently from free probe, usually more slowly.
IGF2BP1-Flag (recombinant);RBRP-Flag WT, sequence (Q9NZI8 whole entry, chain 1 of 2): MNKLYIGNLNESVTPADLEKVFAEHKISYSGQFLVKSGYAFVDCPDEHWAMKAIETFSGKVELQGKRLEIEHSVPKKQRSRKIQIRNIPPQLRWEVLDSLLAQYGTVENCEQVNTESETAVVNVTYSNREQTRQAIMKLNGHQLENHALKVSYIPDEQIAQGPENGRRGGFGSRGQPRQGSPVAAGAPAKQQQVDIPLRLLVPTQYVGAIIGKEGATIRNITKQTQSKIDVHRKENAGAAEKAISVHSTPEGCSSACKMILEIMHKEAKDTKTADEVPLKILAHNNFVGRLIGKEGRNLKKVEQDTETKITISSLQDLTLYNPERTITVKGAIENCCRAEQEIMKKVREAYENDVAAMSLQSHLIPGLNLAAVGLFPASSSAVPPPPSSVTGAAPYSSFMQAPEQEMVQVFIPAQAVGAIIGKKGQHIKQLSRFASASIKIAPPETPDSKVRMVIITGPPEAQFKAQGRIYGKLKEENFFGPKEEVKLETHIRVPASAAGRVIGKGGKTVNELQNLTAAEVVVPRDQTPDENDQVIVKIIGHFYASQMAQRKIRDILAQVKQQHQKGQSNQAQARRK
IGF2BP1-Flag (recombinant);RBRP-Flag WT, sequence (C0HM01 whole entry, chain 2 of 2): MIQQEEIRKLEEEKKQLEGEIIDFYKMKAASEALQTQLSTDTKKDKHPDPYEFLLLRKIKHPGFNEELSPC

With CGUCUCGGACUCGGACUGCU (ssRNA, m6A at 9 and 15) [ss-m6A], the binding result is “binds”.
